Laboratory results published in patent US20190367592A1 (AC IMMUNE, published 2019).
Changes are numbered by the printed parent chain.

Columns and labels:
[1] = target: T1, recombinant human Tau monomer, 2N4R isoform (amino acids 2-441) (human, UniProt P10636-8 2-441); assay: SPR; Normalized Rmax post-stress (2 weeks 40 C) / pre-stress
T1 construct: range 2-441; N-terminal His-tag removed with TEV protease; also called monomeric Tau
Method: (§1) Briefly, IgGs in 1 mL culuture were captured using tip columns that were custom packed with 20 μL MabSelect SuRe resin (Glygen Corp & GE Healthcare). After washing with 1×PBS pH 7.4, IgGs were eluted into 160 μL of 50 mM phosphoric acid pH 3 and neutralized with 12 μL of 20×PBS pH 11. MabSelect SuRe tip columns were stripped in 0.1 M NaOH and regenerated with 1×PBS pH 7.4 for consecutive use of up to 15 times. Purified antibodies in 96-well format were normalized to 0.1 mg/ml using a Hamilton Star liquid handling robot. The “pre-stress” samples were kept at approximately 4° C. and the “post-stress” samples were incubated at 40° C. for two weeks in a PCR machine. Functional stability of the variants was compared by running surface plasmon resonance kinetics experiments with the “pre-stress” and “post-stress” antibody preps. The antibodies were assessed using a human antibody capture CM5 Series S chip generated using the GE Biacore human IgG capture kit and a Biacore T200 instrument. Antibodies diluted to 2 μg/ml were immobilized using a 15 second injection time and 10 μl/min flow rate. Binding to Tau monomer at 0 nM, 26.5 nM and 265 nM, at 25° C., using a flow rate of 40 μl/min, was monitored for a 180 second association phase followed by a 300 second dissociation phase. Samples were run in 10 mM HEPES pH7.4, 150 mM NaCl, 0.05% Tween 20 (HBSP) using a multi-cycle kinetics format. Data was analyzed using BIAevaluation software, fitting a 1:1 binding model. The resulting affinity (KD) values are shown in FIG. 8A-D. A Stability Index was also calculated, using the rationale that affinity-compromised antibodies (due for example to deamidation of key residues) are expected to contribute equally to the IgG capture level (“Ligand Level”) but to contribute less to the measured Tau binding, and that this would be reflected in the experimentally derived value for Rmax. To account for variations in the amount of each antibody captured, Rmax was normalized for the antibody capture level (as measured by “Ligand Level”, Response Units immobilized during antibody capture). Thus Normalized Rmax is calculated as the experimental Rmax (units=RU) divided by the “Ligand Level” (Evaluation output representing the RU captured during the hIgG capture step, units=RU), and Stability Index is calculated here as Normalized Rmax (post-stress) divided by Normalized Rmax (pre-stress).

[2] = target: T1, recombinant human Tau monomer, 2N4R …; assay: SPR, captured IgG, Tau monomer analyte, 1:1 model; fit-quality column: -
Method: as §1

[3] = target: T1, recombinant human Tau monomer, 2N4R …; assay: SPR screen, hIgG captured, Tau monomer analyte
From the text: Antibody 125B11-H3 was humanized onto VH3 and Vκ1 consensus frameworks. The heavy chain graft included murine residues at position 78 (Kabat numbering system). The Vκ1 graft included murine residues in framework positions 43 and 87. The light chain of 113F5-F7 was also humanized onto the Vκ1 framework, with additional murine residues at framework positions 43 and 87. Humanized variant heavy chains (125B11) and light chains (125B11 and 113F5-F7) were co-transfected in multiple combinations and purified in 96-well format as described above. Humanized variants were then screened for affinity for human Tau monomer using the Biacore human IgG capture kit, a Series S CM5 chip and a Biacore T200 instrument. Antibodies were diluted to 2 μg/ml and captured for 15 seconds at 10 μl/min. Association and dissociation of 0, 100 and 500 nM human Tau monomer in HBSP was monitored for 180s and 300s respectively at a flow rate of 40 μl/min. A 1:1 binding model was applied to the results (Table 9).
Variants hu125B11.v17 (HC3+LC1), hu125B11.v26 (HC4+LC2) and hu125B 11.v28 (HC4+LC4) were selected for high-resolution kinetic analysis based on the affinity screen (Table 10). Antibody 94B2-C1 was humanized onto VH1 and Vx2 frameworks. The heavy chain graft also included murine residues at position 28, 29, 67, 69, 71, and 73 (Kabat numbering system). The Vκ2 graft also included murine residues in framework positions 2, 36, and 46. […] Variant hu94B2.v105 (heavy chain variant 94B2.HCl, light chain variant 94B2.LC13) was selected for detailed SPR characterization (Table 11).

T1 sequence (P10636 other isoform, or with tags, fused parts or gaps limits assumed): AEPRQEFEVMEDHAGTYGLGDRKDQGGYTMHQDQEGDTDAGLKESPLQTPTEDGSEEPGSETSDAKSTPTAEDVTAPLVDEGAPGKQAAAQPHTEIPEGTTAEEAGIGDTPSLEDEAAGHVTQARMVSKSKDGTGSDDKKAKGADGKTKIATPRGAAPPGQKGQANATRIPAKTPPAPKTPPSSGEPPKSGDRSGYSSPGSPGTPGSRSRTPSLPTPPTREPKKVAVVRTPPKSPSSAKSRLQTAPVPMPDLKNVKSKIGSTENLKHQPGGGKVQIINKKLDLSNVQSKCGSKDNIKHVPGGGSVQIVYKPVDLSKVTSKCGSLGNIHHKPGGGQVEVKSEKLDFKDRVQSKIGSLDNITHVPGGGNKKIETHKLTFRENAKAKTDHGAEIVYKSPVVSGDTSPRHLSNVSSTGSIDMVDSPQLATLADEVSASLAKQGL

B1: hu37D3-H9.v5.4 (antibody, V domains shown)
VH: EVQLVESGGGLVQPGGSLRLSCAASGLIFRSYGMSWVRQAPGKGLEWVATINSGGTYTYYPDSVKGRFTISRDNSKNTLYLQMNSLRAEDTAVYYCANSYSGAMDYWGQGTLVTVSS
VL: EDVLTQTPLSLPVTPGQPASISCRSSQSIVHSQGNTYFEWYLQKPGQSPQLLIYKVSNRFSGVPDRFSGSGSGTDFTLKISRVEAEDVGVYYCFQGSLVPWTFGQGTKVEIK
With B1 the “Stability Index” value [1] was 78% and the Kd [2] was 36.1 nM.

B2: hu37D3-H9.v5.5 (antibody, V domains shown)
VH: B1 VH
VL: B1 VL with Q33E
In the case of B2, the “Stability Index” value [1] is reported as 75% and the Kd [2] is reported as 64.5 nM.

B3: hu37D3-H9.v5.6 (antibody, V domains shown)
VH: B1 VH
VL: B1 VL with Q33A
With B3 the “Stability Index” value [1] was 67% and the Kd [2] was 36.6 nM.

B4: hu37D3-H9.v31.1 (antibody, V domains shown)
VH: B1 VH
VL: B1 VL with E1D, Q33N, G34A, N35G
With B4 the “Stability Index” value [1] was 72% and the Kd [2] was 41.2 nM.

B5: hu37D3-H9.v31.4 (antibody, V domains shown)
VH: B1 VH
VL: B1 VL with E1D, Q33N, G34A, N35P
With B5 the “Stability Index” value [1] was 533% and the Kd [2] was 0.8 nM.

B6: hu94B2 HC3 + LC11 (antibody, V domains shown)
VH: EVQLVQSGAEVKKPGASVKVSCKASGYSLTGYTMNWVRQAPGQGLEWIGLISPYNGVTSYNQKFKGRATITVDKSTSTAYLELSSLRSEDTAVYYCARQGAYWGQGTLVTVSS
VL: DVVMTQTPLSLPVTPGQPASISCKSSQSLLDSDGKTYLNWYLQKPGQSPQRLIYLVSKLDSGVPDRFSGSGSGTDFTLKISRVEAEDVGVYYCWQGTHFPWTFGQGTKVEIK
B6 gave a Kd [3] of 69.3 nM.

B7: hu94B2 HC1 + LC11 (antibody, V domains shown)
VH: B6 VH with I70L
VL: B6 VL
Work on B7 yielded a Kd [3] of 91.5 nM.

B8: hu94B2 HC1 + LC15 (antibody, V domains shown)
VH: B6 VH with I70L
VL: B6 VL with V2I
Work on B8 yielded a Kd [3] of 104 nM.

B9: hu94B2 HC2 + LC9 (antibody, V domains shown)
VH: B6 VH with A68V, I70L
VL: B6 VL with Y41L
B9 showed a Kd [3] of 5.7 nM.

B10: hu94B2 HC2 + LC11 (antibody, V domains shown)
VH: B6 VH with A68V, I70L
VL: B6 VL
In the case of B10, the Kd [3] is reported as 89.6 nM.

B11: hu94B2 HC2 + LC13 (antibody, V domains shown)
VH: B6 VH with A68V, I70L
VL: B6 VL with V2I, Y41L
Work on B11 yielded a Kd [3] of 7.4 nM.

B12: hu94B2 HC2 + LC15 (antibody, V domains shown)
VH: B6 VH with A68V, I70L
VL: B6 VL with V2I
Binder B12 has a Kd [3] of 99.6 nM.

B13: hu94B2 HC3 + LC9 (antibody, V domains shown)
VH: B6 VH
VL: B6 VL with Y41L
With B13 the Kd [3] was 2 nM.

B14: hu94B2 HC3 + LC13 (antibody, V domains shown)
VH: B6 VH
VL: B6 VL with V2I, Y41L
B14 showed a Kd [3] of 3.8 nM.

B15: hu94B2 HC3 + LC15 (antibody, V domains shown)
VH: B6 VH
VL: B6 VL with V2I
With B15 the Kd [3] was 64.1 nM.

B16: hu94B2 HC4 + LC9 (antibody, V domains shown)
VH: B6 VH with I70L, V72R
VL: B6 VL with Y41L
With B16 the Kd [3] was 61.9 nM.

B17: hu94B2 HC4 + LC13 (antibody, V domains shown)
VH: B6 VH with I70L, V72R
VL: B6 VL with V2I, Y41L
B17 showed a Kd [3] of 64.1 nM.

B18: hu94B2 HC5 + LC9 (antibody, V domains shown)
VH: B6 VH with I70L, K74T
VL: B6 VL with Y41L
In the case of B18, the Kd [3] is reported as 2.7 nM.

B19: hu94B2 HC5 + LC11 (antibody, V domains shown)
VH: B6 VH with I70L, K74T
VL: B6 VL
Binder B19 has a Kd [3] of 62.6 nM.

B20: hu94B2 HC5 + LC13 (antibody, V domains shown)
VH: B6 VH with I70L, K74T
VL: B6 VL with V2I, Y41L
Work on B20 yielded a Kd [3] of 4 nM.

B21: hu94B2 HC5 + LC15 (antibody, V domains shown)
VH: B6 VH with I70L, K74T
VL: B6 VL with V2I
B21 gave a Kd [3] of 72.6 nM.

B22: hu94B2 HC6 + LC9 (antibody, V domains shown)
VH: B6 VH with A68V
VL: B6 VL with Y41L
Work on B22 yielded a Kd [3] of 0.9 nM.

B23: hu94B2 HC6 + LC11 (antibody, V domains shown)
VH: B6 VH with A68V
VL: B6 VL
With B23 the Kd [3] was 70.1 nM.

B24: hu94B2 HC6 + LC13 (antibody, V domains shown)
VH: B6 VH with A68V
VL: B6 VL with V2I, Y41L
For B24, the Kd [3] was 3 nM.

B25: hu94B2 HC6 + LC15 (antibody, V domains shown)
VH: B6 VH with A68V
VL: B6 VL with V2I
B25 gave a Kd [3] of 74.1 nM.

B26: hu94B2 HC7 + LC9 (antibody, V domains shown)
VH: B6 VH with A68V, V72R
VL: B6 VL with Y41L
Work on B26 yielded a Kd [3] of 52.9 nM.

B27: hu94B2 HC7 + LC13 (antibody, V domains shown)
VH: B6 VH with A68V, V72R
VL: B6 VL with V2I, Y41L
B27 showed a Kd [3] of 57.8 nM.

B28: hu94B2 HC8 + LC9 (antibody, V domains shown)
VH: B6 VH with A68V, K74T
VL: B6 VL with Y41L
B28 showed a Kd [3] of 1 nM.

B29: hu94B2 HC8 + LC11 (antibody, V domains shown)
VH: B6 VH with A68V, K74T
VL: B6 VL
With B29 the Kd [3] was 44.3 nM.

B30: hu94B2 HC8 + LC13 (antibody, V domains shown)
VH: B6 VH with A68V, K74T
VL: B6 VL with V2I, Y41L
With B30 the Kd [3] was 2.4 nM.

B31: hu94B2 HC8 + LC15 (antibody, V domains shown)
VH: B6 VH with A68V, K74T
VL: B6 VL with V2I
B31 gave a Kd [3] of 51.5 nM.
